Measured values published in patent publication US20190241648A1 (STATEN BIOTECHNOLOGY B V, published 2019).
Ends that are not written are not given here.

Key:
Assay in all cases: cyclic peptide substitution array
ApoC3 peptide F61V = target: T1, ApoC3 peptide F61V (human, cyclic (thioether))
T1 peptide: DKVSEFWDLDPEV
Excerpt: (§1) S62 and D68 of mature huApoC3 were also highly conserved; substitution of S62 by A or V, and substitution of D68 by E or P, caused decrease of spot intensities by ˜60% or higher. […] Amino acid F64 was completely variable.
(§2) Pre: staining of one of the ApoC3 peptide microarrays was done with the secondary antibody goat anti-human IgG (Fe) DyLight680 (1:5000) and control antibody mouse monoclonal anti-HA (12CA5) DyLight800 (1:2000) to investigate background interactions of the secondary antibody with the antigen-derived peptides that could interfere with the main assays. Subsequent incubation of other ApoC3 peptide microarrays with antibody samples was followed by staining with secondary and control antibodies as well as read-out at scanning intensities of 7/7 (red/green). The additional HA peptides framing the peptide arrays were stained as internal quality control to confirm the assay quality and the peptide microarray integrity.

ApoC3 peptide K60N = target: T2, ApoC3 peptide K60N (human, cyclic (thioether))
T2 peptide: DNFSEFWDLDPEV
Excerpt: as §1, §2

ApoC3 peptide E70Y = target: T3, ApoC3 peptide E70Y (human, cyclic (thioether))
T3 peptide: DKFSEFWDLDPYV
Excerpt: as §1, §2

ApoC3 peptide P69R = target: T4, ApoC3 peptide P69R (human, not fully specified; cyclic (thioether))
T4 peptide: DKFSEFWDLDREV
Excerpt: as §1, §2

ApoC3 peptide F61A = target: T5, ApoC3 peptide F61A (human, cyclic (thioether))
T5 peptide: DKASEFWDLDPEV
Excerpt: as §1, §2

ApoC3 peptide K60R = target: T6, ApoC3 peptide K60R (human, cyclic (thioether))
T6 peptide: DRFSEFWDLDPEV
Excerpt: as §1, §2

ApoC3 peptide E63L = target: T7, ApoC3 peptide E63L (human, cyclic (thioether))
T7 peptide: DKFSLFWDLDPEV
Excerpt: as §1, §2

ApoC3 peptide L67S = target: T8, ApoC3 peptide L67S (human, thioether (positions not given here); not fully specified (bridges); also: thioether between a C-terminal Cys side chain and a modified N-terminus, the Cys is not in the chain)
T8 peptide: DKFSEFWDSDPEV
Excerpt: as §1, §2

ApoC3 peptide P69W = target: T9, ApoC3 peptide P69W (human, not fully specified; cyclic (thioether))
T9 peptide: DKFSEFWDLDWEV
Excerpt: as §1, §2

ApoC3 peptide F61S = target: T10, ApoC3 peptide F61S (human, cyclic (thioether))
T10 peptide: DKSSEFWDLDPEV
Excerpt: as §1, §2

ApoC3 peptide F61C = target: T11, ApoC3 peptide F61C (human, cyclic (thioether))
T11 peptide: DKCSEFWDLDPEV
Excerpt: as §1, §2

ApoC3 peptide P69Q = target: T12, ApoC3 peptide P69Q (human, not fully specified; cyclic (thioether))
T12 peptide: DKFSEFWDLDQEV
Excerpt: as §1, §2

ApoC3 peptide D66M = target: T13, ApoC3 peptide D66M (human, not fully specified; cyclic (thioether))
T13 peptide: DKFSEFWMLDPEV
Excerpt: as §1, §2

ApoC3 peptide D66C = target: T14, ApoC3 peptide D66C (human, not fully specified; cyclic (thioether))
T14 peptide: DKFSEFWCLDPEV
Excerpt: as §1, §2

ApoC3 peptide S62R = target: T15, ApoC3 peptide S62R (human, thioether (positions not given here); also: cyclic (thioether), ring places not given here)
T15 peptide: DKFREFWDLDPEV
Excerpt: as §1, §2

ApoC3 peptide S62N = target: T16, ApoC3 peptide S62N (human, thioether (positions not given here); also: cyclic (thioether), ring places not given here)
T16 peptide: DKFNEFWDLDPEV
Excerpt: as §1, §2

ApoC3 peptide K60W = target: T17, ApoC3 peptide K60W (human, cyclic (thioether))
T17 peptide: DWFSEFWDLDPEV
Excerpt: as §1, §2

ApoC3 peptide P69T = target: T18, ApoC3 peptide P69T (human, not fully specified; cyclic (thioether))
T18 peptide: DKFSEFWDLDTEV
Excerpt: as §1, §2

ApoC3 peptide L67V = target: T19, ApoC3 peptide L67V (human, thioether (positions not given here); not fully specified (bridges); also: thioether between a C-terminal Cys side chain and a modified N-terminus, the Cys is not in the chain)
T19 peptide: DKFSEFWDVDPEV
Excerpt: as §1, §2

ApoC3 peptide L67F = target: T20, ApoC3 peptide L67F (human, thioether (positions not given here); not fully specified (bridges); also: thioether between a C-terminal Cys side chain and a modified N-terminus, the Cys is not in the chain)
T20 peptide: DKFSEFWDFDPEV
Excerpt: as §1, §2

ApoC3 peptide V71P = target: T21, ApoC3 peptide V71P (human, not fully specified; cyclic (thioether))
T21 peptide: DKFSEFWDLDPEP
Excerpt: as §1, §2

ApoC3 peptide K60I = target: T22, ApoC3 peptide K60I (human, cyclic (thioether))
T22 peptide: DIFSEFWDLDPEV
Excerpt: as §1, §2

ApoC3 peptide D68T = target: T23, ApoC3 peptide D68T (human, cyclic (thioether))
T23 peptide: DKFSEFWDLTPEV
Excerpt: as §1, §2

ApoC3 peptide D66R = target: T24, ApoC3 peptide D66R (human, not fully specified; cyclic (thioether))
T24 peptide: DKFSEFWRLDPEV
Excerpt: as §1, §2

ApoC3 peptide D68A = target: T25, ApoC3 peptide D68A (human, cyclic (thioether))
T25 peptide: DKFSEFWDLAPEV
Excerpt: as §1, §2

ApoC3 peptide E70S = target: T26, ApoC3 peptide E70S (human, cyclic (thioether))
T26 peptide: DKFSEFWDLDPSV
Excerpt: as §1, §2

ApoC3 peptide P69D = target: T27, ApoC3 peptide P69D (human, not fully specified; cyclic (thioether))
T27 peptide: DKFSEFWDLDDEV
Excerpt: as §1, §2

ApoC3 peptide D68R = target: T28, ApoC3 peptide D68R (human, cyclic (thioether))
T28 peptide: DKFSEFWDLRPEV
Excerpt: as §1, §2

ApoC3 peptide K60G = target: T29, ApoC3 peptide K60G (human, cyclic (thioether))
T29 peptide: DGFSEFWDLDPEV
Excerpt: as §1, §2

ApoC3 peptide E63T = target: T30, ApoC3 peptide E63T (human, cyclic (thioether))
T30 peptide: DKFSTFWDLDPEV
Excerpt: as §1, §2

ApoC3 peptide W65K = target: T31, ApoC3 peptide W65K (human, cyclic (thioether))
T31 peptide: DKFSEFKDLDPEV
Excerpt: as §1, §2

ApoC3 peptide E70H = target: T32, ApoC3 peptide E70H (human, cyclic (thioether))
T32 peptide: DKFSEFWDLDPHV
Excerpt: as §1, §2

% of binding to wild-type peptide (ApoC3 peptide F61V): 20.2% | % of binding to wild-type peptide (ApoC3 peptide K60N): 153% | % of binding to wild-type peptide (ApoC3 peptide E70Y): 50.7% | % of binding to wild-type peptide (ApoC3 peptide P69R): 20.1% | % of binding to wild-type peptide (ApoC3 peptide F61A): 17.4% | % of binding to wild-type peptide (ApoC3 peptide K60R): 112% | % of binding to wild-type peptide (ApoC3 peptide E63L): 10.1% | % of binding to wild-type peptide (ApoC3 peptide L67S): 36.5% | % of binding to wild-type peptide (ApoC3 peptide P69W): 5.36% | % of binding to wild-type peptide (ApoC3 peptide F61S): 22.6% | % of binding to wild-type peptide (ApoC3 peptide F61C): 0.51% | % of binding to wild-type peptide (ApoC3 peptide P69Q): 24.3% | % of binding to wild-type peptide (ApoC3 peptide D66M): 0% | % of binding to wild-type peptide (ApoC3 peptide D66C): 10.3% | % of binding to wild-type peptide (ApoC3 peptide S62R): 1.45% | % of binding to wild-type peptide (ApoC3 peptide S62N): 0% | % of binding to wild-type peptide (ApoC3 peptide K60W): 41.9% | % of binding to wild-type peptide (ApoC3 peptide P69T): 113% | % of binding to wild-type peptide (ApoC3 peptide L67V): 84.8% | % of binding to wild-type peptide (ApoC3 peptide L67F): 0.37% | % of binding to wild-type peptide (ApoC3 peptide V71P): 173% | % of binding to wild-type peptide (ApoC3 peptide K60I): 106% | % of binding to wild-type peptide (ApoC3 peptide D68T): 0.65% | % of binding to wild-type peptide (ApoC3 peptide D66R): 0.17% | % of binding to wild-type peptide (ApoC3 peptide D68A): 1.75% | % of binding to wild-type peptide (ApoC3 peptide E70S): 55.2% | % of binding to wild-type peptide (ApoC3 peptide P69D): 21.6% | % of binding to wild-type peptide (ApoC3 peptide D68R): 0% | % of binding to wild-type peptide (ApoC3 peptide K60G): 143% | % of binding to wild-type peptide (ApoC3 peptide E63T): 0% | % of binding to wild-type peptide (ApoC3 peptide W65K): 0% | % of binding to wild-type peptide (ApoC3 peptide E70H): 50.5%
B1: Llama antibody 5E5 (antibody, V domains shown)
VH: QLQLVESGGGLVQPGGSLRLSCAASGFTFGTYSMRWVRQVPRKALEWVSSISTDGGGTAYRDSVKGRFTISRDNAKNTLYLQMNNLKPEDTAIYYCVIAGYSDWGQGTQVTVSS
VL: ATMLTQSPGSLSVVPGESASISCKTSQGLVHSDGKTYFYWFLQKPGQSPQQLIYQVSNRASGVPDRFTGSGSGTDFTLKISGVKAEDAGVYYCAQGTYYPHTFGSGTRLEIK
notes: detected with goat anti-human IgG (Fc); also called mAb 5E5
